Residue numbers refer to the chain shown, from its start. Values belong to the binder of their own block, whether it stands above or below them.
Experiments:
Human GDF15 Fc [1] = target: T1, Human GDF15 Fc (human, UniProt Q99988 195-308, limits assumed, biotinylated (EZ-Link Sulfo-NHS-Biotinylation Kit) in the SPR assay); assay: SPR Biacore 8K; biotinylated antigen captured, Fab analyte
T1 construct: also called human GDF15-Fc fusion; biotinylated Human GDF15 Fc; not shown: Fc part
T1 sequence: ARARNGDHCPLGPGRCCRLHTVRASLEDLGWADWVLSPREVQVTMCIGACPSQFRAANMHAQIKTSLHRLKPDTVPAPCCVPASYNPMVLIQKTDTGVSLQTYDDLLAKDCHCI
Method: Kinetic analysis was conducted at 25° C. in HBS-EP+running buffer (10 mM HEPES pH 7.4, 150 mM NaCl, 3 mM EDTA, 0.05% Surfactant P20) using a Biacore 8K optical biosensor (Cytiva, Marlborough, MA). The sample compartment was maintained at 10° C. for the duration of the experiment. The Biacore 8K can analyze up to 8 separate interactions in a single cycle.
Each experiment cycle began with an injection (300 s at 2 μL/min) overflow cells 1 and 2 of a 1:100 solution of biotin CAPture reagent (Cytiva) in running buffer. This was followed by an injection (45 s at 10.0 μL/min) of biotinylated human GDF15 (5 nM) overflow cell 2. […] The dissociation of the antibodies were monitored for 3420 s. Finally, an injection (120 s at 10 μL/min) of regeneration solution (6 M Guanidine-HCl in 0.25 M NaOH) overflow cells 1 and 2 prepared the sensor surface for another cycle. Several blank buffer samples were injected (300 s at 30 μL/min) overflow cells 1 and 2 throughout the duration of the experiment and used for reference surface subtraction—each were monitored for the same amount of dissociation time (3420 s) and regenerated under the same conditions as those for the Fab sample injections.

Mouse GDF15 Fc = target: T2, Mouse GDF15 Fc (mouse, UniProt Q9Z0J7 189-303, limits assumed); assay: BLI Octet; antigen on sensor, 100 nM Fab (monovalent)
T2 construct: also called mouse GDF15-Fc fusion; not shown: Fc part
T2 sequence (looked up): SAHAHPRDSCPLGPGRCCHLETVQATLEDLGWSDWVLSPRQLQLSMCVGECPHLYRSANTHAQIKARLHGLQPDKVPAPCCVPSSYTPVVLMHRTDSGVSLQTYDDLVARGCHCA

Cyno GDF15 Fc = target: T3, Cyno GDF15 Fc (cyno, UniProt G7PWZ3 193-308, limits assumed); assay: as above
T3 construct: also called cyno GDF15-Fc fusion; not shown: Fc part
T3 sequence: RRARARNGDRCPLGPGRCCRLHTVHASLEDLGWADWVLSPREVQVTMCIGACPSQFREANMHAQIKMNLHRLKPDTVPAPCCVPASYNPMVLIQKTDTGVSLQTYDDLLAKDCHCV

Human GDF15 Fc [2] = target: T1, Human GDF15 Fc; assay: as above
[3] = target: T4, GDF15 (ligand used in the GFRAL/RET cell assays) (UniProt Q99988 197-308, limits assumed); assay: cell-based or functional assay
T4 sequence (looked up): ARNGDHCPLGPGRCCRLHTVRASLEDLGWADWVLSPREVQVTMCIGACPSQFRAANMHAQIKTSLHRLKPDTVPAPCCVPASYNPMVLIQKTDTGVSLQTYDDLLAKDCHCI

Human Activin B = target: T5, Human Activin B (human, UniProt P09529 293-407); assay: BLI Octet; IgG on sensor, 100 nM antigen (avid)
T5 sequence (looked up): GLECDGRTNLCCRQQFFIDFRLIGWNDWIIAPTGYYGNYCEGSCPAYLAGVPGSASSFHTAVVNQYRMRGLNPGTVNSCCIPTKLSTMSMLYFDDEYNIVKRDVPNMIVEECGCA

Human BMP9 = target: T6, Human BMP9 (human, UniProt Q9UK05 320-429); assay: BLI Octet; IgG on sensor, 100 nM antigen (avid)
T6 sequence (looked up): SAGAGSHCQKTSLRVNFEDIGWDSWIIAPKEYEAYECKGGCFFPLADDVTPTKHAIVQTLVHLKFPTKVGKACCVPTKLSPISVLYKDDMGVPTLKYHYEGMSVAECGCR

Human GDF15 Fc [4] = target: T1, Human GDF15 Fc; assay: BLI Octet; IgG on sensor, 100 nM antigen (avid)
Method: Briefly, ForteBio affinity measurements were performed by loading IgGs on-line onto AHC sensors. Sensors were equilibrated off-line in assay buffer for 30 min and then monitored on-line for 60 seconds for baseline establishment. Sensors with loaded IgGs were exposed to 100 nM antigen for 3 minutes, and afterwards were transferred to assay buffer for 3 min for off-rate measurement. All kinetics were analyzed using the 1:1 binding model.

GDF10 = target: T7, GDF10 (UniProt P55107 369-478); assay: BLI Octet; IgG on sensor
T7 sequence (looked up): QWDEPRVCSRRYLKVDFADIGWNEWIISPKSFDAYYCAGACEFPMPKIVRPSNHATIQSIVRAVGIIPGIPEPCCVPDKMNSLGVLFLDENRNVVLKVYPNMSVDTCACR

GDF11 = target: T8, GDF11 (UniProt O95390 299-407); assay: BLI Octet; IgG on sensor
T8 construct: Also used as ligand in the Activin 2B receptor/SMAD reporter assay

GDF8 = GDF8 (UniProt O14793 267-375); assay: BLI Octet; IgG on sensor
GDNF = target: T9, GDNF (UniProt P39905 78-211); assay: BLI Octet; IgG on sensor
T9 sequence (looked up): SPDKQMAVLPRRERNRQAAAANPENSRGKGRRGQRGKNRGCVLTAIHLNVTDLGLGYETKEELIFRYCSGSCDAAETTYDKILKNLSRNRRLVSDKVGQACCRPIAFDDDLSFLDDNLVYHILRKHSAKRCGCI

T8 sequence (O95390 299-407 limits assumed): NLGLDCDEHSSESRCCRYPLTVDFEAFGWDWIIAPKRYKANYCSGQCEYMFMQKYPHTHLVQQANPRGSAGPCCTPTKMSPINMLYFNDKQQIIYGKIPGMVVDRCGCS

B1: GDF15 antibody agent Clone I, Fab (Fab, V domains shown)
VH: QVQLVQSGAEVKKPGASVKVSCKASGYTFTDEGINWVRQAPGQGLEWMGWITAYSGDTVYAQKLQGRVTMTTDTSTSTAYMELRSLRSDDTAVYYCARGPGQYADVDVWGQGTMVTVSS
VL: DIQMTQSPSSVSASVGDRVTITCRASQGISSWLAWYQQKPGKAPKLLIYAASSLQSGVPSRFSGSGSGTDFTLTISSLQPEDFATYYCQQANSFPITFGGGTKVEIK
notes: Fab; CH1 and CL of the Fab not specified; also called Fab of Clone I
Kd (Human GDF15 Fc [1]): 0.0672 nM | koff (Human GDF15 Fc [1]): 0.000259 s⁻¹ | kon (Human GDF15 Fc [1]): 3.85e+06 M⁻¹ s⁻¹ | Kd (Mouse GDF15 Fc): 1.45 nM | Kd (Cyno GDF15 Fc): 1.38 nM | Kd (Human GDF15 Fc [2]): 1.25 nM | GDF15 GFRAL RET pERK Fab IC50 pM [3]: 111 pM

B3: GDF15 antibody agent Clone B, IgG (antibody, V domains shown)
VH: QVQLQESGPGLVKPSQTLSLTCTVSGGSISSGGIYWTWIRQHPGKGLEWIGAIAYSGSTYYNPSLKSRVTISVDTSKNQFSLKLSSVTAADTAVYYCARGIEYQHFDYWGQGTLVTVSS
VL: not shown
Kd (Human Activin B): 145 nM | binding result (Human BMP9): binds | Kd (Human GDF15 Fc [4]): 0.26 nM | GDF15-GFRAL RET pERK IC50 (pM) [3]: 104 pM | GDF15-GFRAL-RET Luciferase IC50 (pM) [3]: 66.2 pM | binding result (GDF10): no binding (tested: 100 nM) | binding result (GDF11): no binding (tested: 100 nM) | binding result (GDF8): no binding (tested: 100 nM) | binding result (GDNF): no binding (tested: 100 nM)

B5: GDF15 antibody agent Clone H, Fab (Fab, V domains shown)
VH: QVQLVQSGAEVKKPGSSVKVSCKASGGTFSSYYISWVRQAPGQGLEWMGGIAPISGTASYAQKFQGRVTITADESTSTAYMELSSLRSEDTAVYYCARGLAYDGYFDLWGRGTLVTVSS
VL: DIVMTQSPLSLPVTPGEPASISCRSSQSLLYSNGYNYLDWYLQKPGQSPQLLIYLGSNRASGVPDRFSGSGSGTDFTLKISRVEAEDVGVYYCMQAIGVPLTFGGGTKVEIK
notes: Fab; CH1 and CL of the Fab not specified; also called Fab of Clone H
Kd (Human GDF15 Fc [1]): 0.117 nM | koff (Human GDF15 Fc [1]): 0.000735 s⁻¹ | kon (Human GDF15 Fc [1]): 6.29e+06 M⁻¹ s⁻¹ | Kd (Mouse GDF15 Fc): 50.9 nM | Kd (Cyno GDF15 Fc): 1.42 nM | Kd (Human GDF15 Fc [2]): 1.24 nM | GDF15 GFRAL RET pERK Fab IC50 pM [3]: 24.6 pM

The remaining lines, values ahead:

Kd (Human GDF15 Fc [1]): 0.0369 nM | koff (Human GDF15 Fc [1]): 4.93e-05 s⁻¹ | kon (Human GDF15 Fc [1]): 1.34e+06 M⁻¹ s⁻¹ | Kd (Mouse GDF15 Fc): 1.36 nM | Kd (Cyno GDF15 Fc): 0.252 nM | Kd (Human GDF15 Fc [2]): 0.48 nM
B2: GDF15 antibody agent Clone S, Fab (Fab, V domains shown)
VH: B1 VH with D31S, E32Y, V59N
VL: B1 VL with M4L, S31P
notes: Fab; CH1 and CL of the Fab not specified; also called Fab of Clone S

Kd (Human Activin B): 188 nM | binding result (Human BMP9): binds | binding result (GDF10): no binding (tested: 100 nM) | binding result (GDF11): no binding (tested: 100 nM) | binding result (GDF8): no binding (tested: 100 nM) | binding result (GDNF): no binding (tested: 100 nM)
B4: GDF15 antibody agent Clone R, IgG (antibody, V domains shown)
VH: B3 VH with K66E
VL: not shown

Kd (Human GDF15 Fc [1]): 0.599 nM | koff (Human GDF15 Fc [1]): 0.00191 s⁻¹ | kon (Human GDF15 Fc [1]): 3.2e+06 M⁻¹ s⁻¹ | Kd (Mouse GDF15 Fc): 31.4 nM | Kd (Cyno GDF15 Fc): 1.91 nM | Kd (Human GDF15 Fc [2]): 3.88 nM | GDF15 GFRAL RET pERK Fab IC50 pM [3]: 1370 pM
B6: GDF15 antibody agent Clone M, Fab (Fab, V domains shown)
VH: QVQLVQSGAEVKKPGASVKVSCKASGYTFDSYGINWVRQAPGQGLEWMGWISAYSGDTAYAQELQGRVTMTTDTSTSTAYMELRSLRSDDTAVYYCVRDTQYGGSPYWGQGTLVTVSS
VL: EIVMTQSPATLSVSPGERATLSCRASQSVSSNLAWYQQKPGQAPRLLIYGASTRATGIPARFSGSGSGTEFTLTISSLQSEDFAVYYCQQYNNWPITFGGGTKVEIK
notes: Fab; CH1 and CL of the Fab not specified; also called Fab of Clone M

From US20250382359A1 (BYOMASS, published 2025)
